Source: patent US20180245058

Assays:
Test in all cases: cell_activity
[1] = target: CCR5 ZFN with wild-type ZC linker (SBS #8266) (artificial) (UniProt P14870); details: average of 2; ZFN pair
[2] = test system: CCR5 ZFN with L6a linker (artificial); details: average of 2; ZFN pair
[3] = test system: CCR5 ZFN with L7a linker (artificial); details: ZFN pair
[4] = test system: mROSA-targeted ZFN pair, Wt/Wt linkers (artificial); details: Neuro2A, CEL-I; repeats 23.2 and 18.7; mock 0.4
[5] = test system: mROSA-targeted ZFN pair, Wt/L7a linkers (artificial); details: Neuro2A, CEL-I; mock 0.4
[6] = test system: rat IgM-targeted ZFN pair including L7a linker (artificial); details: rat C6 cells, CEL-I
[7] = test system: rat IgM-targeted ZFN pair, ZC linkers (artificial); details: rat C6 cells, CEL-I

CCR5 ZFN with L7a linker (artificial), sequence (chain, as listed by the source): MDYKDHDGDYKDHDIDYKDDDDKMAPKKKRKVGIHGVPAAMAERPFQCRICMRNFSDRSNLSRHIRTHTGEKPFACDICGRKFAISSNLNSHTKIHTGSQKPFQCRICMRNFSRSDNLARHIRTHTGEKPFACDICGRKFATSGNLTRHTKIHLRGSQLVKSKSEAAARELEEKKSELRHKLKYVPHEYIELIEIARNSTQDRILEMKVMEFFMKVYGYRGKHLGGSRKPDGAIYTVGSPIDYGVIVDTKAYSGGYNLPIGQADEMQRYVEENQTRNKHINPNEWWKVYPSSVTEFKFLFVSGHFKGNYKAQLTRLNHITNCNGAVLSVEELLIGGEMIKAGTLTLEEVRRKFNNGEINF
CCR5 ZFN with wild-type ZC linker (SBS #8266) (artificial), sequence (P14870 other isoform, or with tags, fused parts or gaps): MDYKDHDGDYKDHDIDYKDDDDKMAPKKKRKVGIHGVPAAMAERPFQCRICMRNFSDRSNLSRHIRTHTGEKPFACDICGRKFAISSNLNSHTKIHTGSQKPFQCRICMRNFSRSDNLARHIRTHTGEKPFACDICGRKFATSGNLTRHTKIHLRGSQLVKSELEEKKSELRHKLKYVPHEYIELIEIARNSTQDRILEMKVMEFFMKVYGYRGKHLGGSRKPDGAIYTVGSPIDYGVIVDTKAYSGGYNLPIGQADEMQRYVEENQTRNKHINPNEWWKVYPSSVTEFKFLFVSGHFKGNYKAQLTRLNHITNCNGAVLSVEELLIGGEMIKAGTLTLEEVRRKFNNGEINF
CCR5 ZFN with L6a linker (artificial), sequence (chain, as listed by the source): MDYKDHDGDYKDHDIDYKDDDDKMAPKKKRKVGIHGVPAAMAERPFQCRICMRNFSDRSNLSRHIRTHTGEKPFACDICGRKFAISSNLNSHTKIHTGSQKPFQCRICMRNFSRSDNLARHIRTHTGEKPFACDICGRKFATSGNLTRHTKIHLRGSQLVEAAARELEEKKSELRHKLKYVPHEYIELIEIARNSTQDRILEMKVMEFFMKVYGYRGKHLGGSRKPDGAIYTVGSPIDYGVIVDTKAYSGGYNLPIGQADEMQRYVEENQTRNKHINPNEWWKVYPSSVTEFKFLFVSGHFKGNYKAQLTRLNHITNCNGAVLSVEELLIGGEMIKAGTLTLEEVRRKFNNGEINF

Work on CCR5 ZFN target, 4 bp gap yielded an activity [1] of 1.2 % NHEJ.
Work on CCR5 ZFN target, 5 bp gap yielded an activity [1] of 35 % NHEJ and an activity [2] of 39.3 % NHEJ.
CCR5 ZFN target, 6 bp gap was tested, and the activity ([3]; average of 2) was 31.8 % NHEJ, the activity [1] was 11.1 % NHEJ and the activity [2] was 25.4 % NHEJ.
With CCR5 ZFN target, 7 bp gap the activity ([3]; average of 2) was 39.6 % NHEJ and the activity [2] was 5.1 % NHEJ.
CCR5 ZFN target, 8 bp gap showed an activity ([3]; average of 2 as printed) of 6.1 % NHEJ.
mROSA target, 6 bp gap was tested, and the activity [4] was 22.6 % NHEJ and the activity [5] was 7.5 % NHEJ.
For rat IgM target, 6 bp gap, the activity [6] was 2.43 % NHEJ and the activity [7] was 1.93 % NHEJ.
